# Reference: patent US20110294738A1, “PTHR1 RECEPTOR COMPOUNDS” (priority 2008, published 2011)
# * marks the point of attachment. Palmitoyl = CCCCCCCCCCCCCCCC(=O)*
# Key:
# PTHR1 [1] = target: T1, PTHR1 (Rattus norvegicus, UniProt P25961); assay: cAMP screening assay using DiscoveRX XS+ kit (PTH1-34 dose-response in UMR-106 cells); settings: compound 10 μM, PTH1-34 stimulated maximal response, 1−(Emax compound/Emax vehicle)
# T1 sequence (P25961 27-591): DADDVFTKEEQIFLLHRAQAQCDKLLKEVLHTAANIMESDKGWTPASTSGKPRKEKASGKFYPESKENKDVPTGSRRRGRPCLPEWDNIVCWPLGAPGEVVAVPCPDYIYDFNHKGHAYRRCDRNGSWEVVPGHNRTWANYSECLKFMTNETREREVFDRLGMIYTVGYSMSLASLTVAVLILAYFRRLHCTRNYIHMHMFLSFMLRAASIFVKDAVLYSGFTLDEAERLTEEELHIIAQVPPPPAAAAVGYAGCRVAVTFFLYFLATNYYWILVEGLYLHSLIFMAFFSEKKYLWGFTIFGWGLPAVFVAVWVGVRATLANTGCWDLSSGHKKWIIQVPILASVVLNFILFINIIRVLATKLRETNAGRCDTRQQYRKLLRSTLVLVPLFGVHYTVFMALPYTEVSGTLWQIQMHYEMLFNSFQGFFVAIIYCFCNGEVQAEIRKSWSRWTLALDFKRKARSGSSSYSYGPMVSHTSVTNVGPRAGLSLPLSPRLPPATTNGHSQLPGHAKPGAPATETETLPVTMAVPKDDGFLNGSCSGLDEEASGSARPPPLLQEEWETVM
# Protocol: (§1) cAMP Screening Assay Using DiscoveRX XS+ Kit
# (§2) UMR-106 cells were seeded in 96-well white plates at 10K cells/well in growth media. Twenty four hours after seeding, cell media was removed by gentle dumping and replaced with 30 μL of compounds diluted to 10 μM final concentration in assay buffer (Hank's balanced Salt Solution, 20 mM HEPES, pH 7.4, 0.1 μM IBMX). After 30 minute incubation at room temperature, 10 μL human PTH1-34 serial diluted in assay buffer was added. Cells were incubated at 37° C. for 15 minutes before 10 μL of water soluble analog of forskolin, NKH477 was added to final concentration of 10 μM followed by 60 minute incubation at room temperature. DiscoveRX cAMP XS+ kit reagents were then added following manufacture protocol. Briefly, 10 μL of antibody was added to each well followed by 40 μL of ED/Lysis buffer mix (1/5/19 for Galacon-star/Emerald/Lysis buffer and then 1:1 with ED). After 1 hour incubation, 40 μL of EA reagent was added followed by at least 1 hour incubation before the plates were read on TopCount reader. Data was analyzed using GraphPad Prism. PTH1-34 dose-response curves were fitted using non-linear curve fit (Y=Bottom+(Top−Bottom)/(1+10̂((Log EC50−X)*HillSlope))). PTH1-34 EC50 values calculated in the presence of compounds were compared to that in the presence of vehicle control. The ratio of the EC50 values were calculated and presented as fold shift (EC50 compound/EC50 vehicle). The effect of compounds on PTH1-34 stimulated maximal response was also assessed and was presented percent inhibition (1−(Emax compound/Emax vehicle)).
# PTHR1 [2] = target: T1, PTHR1
# Protocol: as §1, §2
Inhibition of Maximal Response (PTHR1 [1]) [%],Substance,Fold Shift of EC50 (PTHR1 [2])
9.10,VRVLATKLRETNAGRSDTR [Compound 45],1.4
1.20,RETNAGRSDTRQ [Compound 63],1.1
15.10,TNAGRSDTRQQYRF [Compound 70],2
5.20,TNAGRSDTRQQYRKLLFA [Compound 86],3.6
40.80,GSEKKYLWGFT [Compound 42],1.3
−30.40,DTRQQYRKLLKSTL [Compound 56],1.9
9.90,TNAGRADTRQQYRKLL [Compound 77],6.9
−25.40,SWSRWTLALDFKRKAR [Compound 102],1
−47.60,RETNAGRSDTRQQYRF [Compound 61],0.7
−0.10,TNAGRSDTRQQYRKLLKS [Compound 64],7
6.40,KLRETNAGRSDTRQQY [Compound 53],2.1
20.30,VLATKLRETNAGRSDTRQQ [Compound 46],0.9
27.50,HSLIFMAFFSEKKYL [Compound 33],1.1
−3.30,RETNAGRSDTRQQRKLLKS [Compound 48],7
−8.30,NIVRVLATKLRETNAGRSD [Compound 44],2

Substance,Inhibition of Maximal Response (PTHR1 [1]) [%],Fold Shift of EC50 (PTHR1 [2])
Pal-GSEKKYLWGFTVF-amide (Palmitoyl-GSEKKYLWGFTVF-NH2; SMILES CCCCCCCCCCCCCCCC(=O)NCC(=O)N[C@@H](CO)C(=O)N[C@@H](CCC(=O)O)C(=O)N[C@@H](CCCCN)C(=O)N[C@@H](CCCCN)C(=O)N[C@@H](Cc1ccc(O)cc1)C(=O)N[C@@H](CC(C)C)C(=O)N[C@@H](Cc1c[nH]c2ccccc12)C(=O)NCC(=O)N[C@@H](Cc1ccccc1)C(=O)N[C@H](C(=O)N[C@H](C(=O)N[C@@H](Cc1ccccc1)C(N)=O)C(C)C)[C@@H](C)O) [Compound 41],17.70,0.9
